2 molecules from paper PMC8333356 (Nature Communications, 2021) can be followed below.

The target of this assay is receptor binding domain (RBD) of SARS-CoV-2 spike (SARS-CoV-2 Wuhan-Hu-1, UniProt P0DTC2). As to the kind of experiment: cryo-EM structure. Particulars: both partners purified.

B1: Nb36 (VHH)
VHH: VQLVESGGGLVQAGGSLTLTCAASGRTFSSETMDMGWFRQAPGKEREFVAADSWNDGSTYYADSVKGRFTISRDSAKNTLYLQMNSLKPEDTAVYYCAAETYSIYEKDDSWGYWGQGTQVTVS
notes: Cloned in pET-21b(+); also called class III Nb; source: E. coli BL21 (DE3), purified (cobalt resin, Superdex 75)
As to B1, the binding result was “binds”.

B2: Nb105 (VHH)
VHH: VQLVESGGGLVQAGGSLRLSCAVSGRTFSTYGMAWFRQAPGKERDFVATITRSGETTLYADSVKGRFTISRDNAKNTVYLQMNSLKIEDTAVYYCAVRRDSSWGYSRDLFEYDYWGQGTQVTVS
notes: Cloned in pET-21b(+); also called class II Nb; source: E. coli BL21 (DE3), purified (cobalt resin, Superdex 75)
Consider B2, for which the binding result was “binds”.
